From article PMC12851022 (2025)

Assays:
VHL [1] = target: T1, VHL (Homo sapiens, UniProt P40337); assay: FRET
VHL [2] = target: T1, VHL; assay: Alpha assay

T1 sequence (P40337 whole entry): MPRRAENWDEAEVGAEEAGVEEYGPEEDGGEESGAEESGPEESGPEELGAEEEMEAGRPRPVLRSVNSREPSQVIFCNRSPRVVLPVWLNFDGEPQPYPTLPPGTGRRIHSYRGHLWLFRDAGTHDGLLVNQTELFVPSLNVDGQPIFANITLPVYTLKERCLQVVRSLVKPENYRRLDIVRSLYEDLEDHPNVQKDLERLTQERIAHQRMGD

- Kd (VHL [1]): 12 nM
- Kd (VHL [2]): 232 nM
B1: USP39 (protein)
chain: MSGRSKRESRGSTRGKRESESRGSSGRVKRERDREREPEAASSRGSPVRVKREFEPASAREAPASVVPFVRVKREREVDEDSEPEREVRAKNGRVDSEDRRSRHCPYLDTINRSVLDFDFEKLCSISLSHINAYACLVCGKYFQGRGLKSHAYIHSVQFSHHVFLNLHTLKFYCLPDNYEIIDSSLEDITYVLKPTFTKQQIANLDKQAKLSRAYDGTTYLPGIVGLNNIKANDYANAVLQALSNVPPLRNYFLEEDNYKNIKRPPGDIMFLLVQRFGELMRKLWNPRNFKAHVSPHEMLQAVVLCSKKTFQITKQGDGVDFLSWFLNALHSALGGTKKKKKTIVTDVFQGSMRIFTKKLPHPDLPAEEKEQLLHNDEYQETMVESTFMYLTLDLPTAPLYKDEKEQLIIPQVPLFNILAKFNGITEKEYKTYKENFLKRFQLTKLPPYLIFCIKRFTKNNFFVEKNPTIVNFPITNVDLREYLSEEVQAVHKNTTYDLIANIVHDGKPSEGSYRIHVLHHGTGKWYELQDLQVTDILPQMITLSEAYIQIWKRRDNDETNQQGA
modifications: USP39_PROTAC_V1
